Series [1] addresses T1, palmitoyl protein thioesterase 1 (PPT1) (Homo sapiens, UniProt P50897).
T1 construct: from tissue; host or cells: dried blood spots from human newborns, NCL patients and a healthy adult control
T1 sequence (P50897 28-306): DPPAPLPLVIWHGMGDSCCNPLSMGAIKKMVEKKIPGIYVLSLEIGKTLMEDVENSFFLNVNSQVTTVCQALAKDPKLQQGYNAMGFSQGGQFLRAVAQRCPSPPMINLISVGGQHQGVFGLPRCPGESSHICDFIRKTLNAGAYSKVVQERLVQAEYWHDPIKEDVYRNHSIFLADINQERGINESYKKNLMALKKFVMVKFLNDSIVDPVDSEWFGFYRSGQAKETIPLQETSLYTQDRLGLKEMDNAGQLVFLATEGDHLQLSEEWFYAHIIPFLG
As to the kind of experiment: PPT1 assay in dried blood spots with synthetic substrate, tandem mass spectrometry (SRM). It is filed as biochemical. The method, then:
(§1) Electrospray-MS/MS was carried out on a Waters Quattro Micro tandem quadrupole (quadrupole-hexapole-quadrupole) instrument using a positive ionization mode and selected reaction monitoring (SRM). Samples (10 μL) were flow-injected with an autosampler in an acetonitrile/water (v/v=80:20) solution containing 0.1% formic at a flow rate of 0.2 mL/min. The mass spectrometer settings were as follows: Capillary voltage 3.5 kV; cone 35 V; extractor 2.0 V; RF lens, 0.2 V; source temperature, 120° C.; desolvation temperature, 250° C.; cone gas flow, 50 L/h; desolvation gas flow, 500 L/h; LM 1 resolution, 14.8; HM 1 resolution, 14.8; ion energy 1, 0.2 eV; entrance, 2 V; collision, 25 eV; exit, 15 V; LM 2 resolution, 14.8; HM 2 resolution, 14.8; ion energy 2, 1.0 eV; multiplier, 650 V; gas cell Pirani pressure, 2.21×10^−3 mbar; dwell time 100 ms. Shorter dwell times (10 ms) were also investigated on the Quattro Micro instrument but led to increased coefficients of variation (CV) for intra-assay measurements from 1.5% at 100 ms to 4% at 10 ms, all for triplicate injections. The precursor ion-fragment ion SRM transitions for the PPT1 assays were monitored at m/z 762.5→m/z 423.5 and m/z 678.4→m/z 423.4 for PPT1-P and PPTI-IS, respectively, corresponding to the formation of the abundant y4 fragment ion of the peptide (FIGS. 1A and 1B). The SRM transitions for the TPP1 assays were monitored at m/z 308.3→m/z 208.3 and m/z 317.3→m/z 209.3 for TPP1-P and TPP1-IS, respectively, as shown in FIG. 2.
A 3-mm punch of a dried blood spot was placed in a 1.5 mL polypropylene tube (Eppendorf) and 100 μL of 100 mM phosphate buffer solution (pH 7) containing 46 nmol of PPT1 substrate (PPT1-S, FIG. 5 (left)) and 2.6 nmol of PPT1 internal standard (PPT1-IS) and 0.08% v/v Triton X-100 (ACROS, Cat #21568) was added. The solution was then vortexed briefly and incubated for 10 h at 37° C. in a thermostated air shaker at 250 rpm. After the incubation period was over, the sample was placed in an ice bath and the reaction was quenched by addition of 300 μL of ethyl acetate and 100 μL of deionized water. […]

Series [2] can be described thus: Non-enzymatic hydrolysis of substrate in blank (absence of DBS), pH dependence. It is filed as physicochemical. An excerpt:
The PPT1 activity is known to have an optimum activity at pH 7 when acting on the natural substrate. […] The production of TPP-P by non-enzymatic hydrolysis in the blank sample at pH 4 was ca. 15 fold lower than that due to TPP1 activity in the DBS.

In series [3] the target is T2, tripeptidyl peptidase 1 (TPP1) (Homo sapiens, UniProt O14773).
T2 construct: from tissue; host or cells: dried blood spots from human newborns, NCL II patients and a control
T2 sequence (O14773 196-563): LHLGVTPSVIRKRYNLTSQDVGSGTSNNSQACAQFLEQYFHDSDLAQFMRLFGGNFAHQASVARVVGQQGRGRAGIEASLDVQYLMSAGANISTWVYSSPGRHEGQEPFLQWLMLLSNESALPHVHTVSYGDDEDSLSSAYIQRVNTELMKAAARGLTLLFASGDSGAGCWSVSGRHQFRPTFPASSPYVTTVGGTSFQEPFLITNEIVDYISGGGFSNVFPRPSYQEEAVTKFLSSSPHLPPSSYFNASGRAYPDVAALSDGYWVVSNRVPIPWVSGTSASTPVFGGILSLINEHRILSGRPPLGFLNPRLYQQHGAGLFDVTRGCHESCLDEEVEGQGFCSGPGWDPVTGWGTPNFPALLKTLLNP
As to the kind of experiment: TPP1 assay in dried blood spots with synthetic substrate, tandem mass spectrometry (SRM). Format: biochemical. The method, then: as §1
TPP1 substrate solution was prepared by dissolving 5 mg TPP1 substrate (FIG. 5 (right)) in 1.5 mL of dimethyl sulfoxide (DMSO). 1 mg TPP1 IS was dissolved in 1.5 mL of assay buffer, which contained 0.15 M NaCl and 0.1 M sodium acetate buffer at pH 4.0. This concentrated TPP1 IS solution was further diluted with stock assay buffer to make a 300 μM IS solution. The assay cocktail was a 100 μL mixture composed of 7.2 μL of substrate solution (40 nmol), 5 μL of 300 μM IS solution (1.5 nmol) and additional 87.8 μL of stock assay buffer. […]

Series [4] can be described thus: Incubation of synthetic PPT1-P in assay buffer with DBS (digestion by proteolytic enzymes in rehydrated DBS). Format: in vitro ADME, human. The conditions noted are these: 18 h. The method, then: The leveling-off effect can be in part due to enzymatic digestion of PPT1-P by proteolytic enzymes in rehydrated DBS. This was checked by incubating synthetic PPT1-P in the assay buffer with DBS for 18 h. […] Since PPT1-P and PPT1-IS are similar hydrophobic peptides, it is safe to presume that their depletion will occur at similar rates and will not affect their molar ratio. […] Based on these measurements, the incubation time for both PPT1 and TPP1 was set at 10 h. The enzyme kinetics with respect to the synthetic substrates was established through Michaelis-Menten plots which were fitted to obtain the Km and Vmax values (FIGS. 12A and 12B). Each Michaelis-Menten curve was obtained from triplicate activity measurements over an appropriate substrate concentration range (0-500 μM and 0-300 μM). […] The measured Km were used to adjust the initial substrate concentrations in the assays to ≥2 Km value, e.g. 0.46 and 0.40 mM for PPT1-S and TPP1-S, respectively.

Series [5] concerns the target T3, palmitoyl protein thioesterase (Homo sapiens, UniProt P50897).
T3 sequence (P50897 28-306): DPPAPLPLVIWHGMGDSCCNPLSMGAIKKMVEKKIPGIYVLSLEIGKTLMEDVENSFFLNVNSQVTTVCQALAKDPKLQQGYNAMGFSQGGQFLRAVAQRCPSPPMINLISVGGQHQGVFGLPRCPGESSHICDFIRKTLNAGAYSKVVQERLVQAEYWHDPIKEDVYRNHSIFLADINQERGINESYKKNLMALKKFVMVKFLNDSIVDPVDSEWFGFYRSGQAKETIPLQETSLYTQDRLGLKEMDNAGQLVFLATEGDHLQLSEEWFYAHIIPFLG
As to the kind of experiment: Simplex PPT1 assay (C12 thioester substrate) carried out with recombinant palmitoyl protein thioesterase, LC-MS/MS. The conditions noted are these: 2 μL recombinant PPT1 enzyme, 0.6 mM C12 thioester substrate, pH 6.75. It is filed as biochemical. The procedure: Assay cocktail: a substrate and internal standard stock solution (methanol solution) were pipetted into a vial and dried using a speed vacuum. After all the solvent is removed, the residue was diluted with assay buffer (0.1M phosphate citrate buffer, 0.08% Triton X-100 (or sodium taurocholate), 0.1 mM EDTA (or no EDTA) at pH=6.75) to a final concentration of 0.6 mM (substrate), 30 μM (Internal Standard), and mixed by vortexing.
[…] For the blank control, a 3.2 mm filter paper punch was placed in a vial. 30 μL of assay cocktail was added to each vial, which either includes dried blood spot (or filter paper blanks). The Eppendorf vial is shaken at 37° C. for 16 hrs using an orbital shaker (250 rpm)/incubator.
After the incubation, the assay is quenched with 100 μL of methanol/ethyl acetate=50/50 mixture, and then 400 μL of ethyl acetate, then 200 μL of 0.5M NaCl(aq), pipette up and down 10× times to mix well.
The sample tubes were then centrifuged at 3000 rpm for 5 minutes. 200 μL of upper layer solution (organic layer) was removed, and transferred to a new shallow plate. The solvent was evaporated under nitrogen gas flow, the remaining solid was reconstituted with 100 μL LC-MS solvent (55/45 water/acetonitrile with 0.1% formic acid). The solution was mixed up and down about 10 times with a pipettor.
The plate was placed on the autosampler of the LC-MS/MS for isocratic LC-MS/MS. […]

Where [6] appears, read: PPT1 in DBS, Michaelis-Menten fit, triplicate activity measurements.
Where [7] appears, read: TPP1 in DBS, Michaelis-Menten fit, triplicate activity measurements.

Ends that are not written are not given here. * marks the point of attachment. Lauroyl = CCCCCCCCCCCC(=O)*

For orientation: Km means the substrate concentration at which the rate is half of its maximum. For orientation: Vmax means the top rate of the reaction or transport when substrate is in excess. “N-Ac-Ala-Leu-Leu-Pro-Phe-Gly-Cys-S—COC11H23 (Ac-ALLPFGC(Lauroyl); also: S-acyl: name COC11H23, mods S-palmitoyl) [PPT1 substrate, cysteine terminated heptapeptide carrying an S-palmitoyl group]”: the “product produced on average per one DBS” value in series [1] (10 h incubation) amounted to 4.7 nmol. In series [1] (setting [6]), the Km was 230 µM and the Vmax came out at 217.0 µmol/L/h. Also, in series [2] (between pH 7 and 8), the “non-enzymatic hydrolysis of the thioester bond” value is listed as “substantially increased”.

Regarding `C[C@H](N)C(=O)N[C@@H](C)C(=O)N[C@@H](Cc1ccccc1)C(=O)NCc1ccc(C(=O)NCCCNC(=O)OC(C)(C)C)cc1` [TPP1 substrate], the “product produced per DBS” value in series [3] (10 h incubation) amounted to 1.7 nmol/DBS. Further, in series [3] (setting [7]), the Km was 53.3 µM and the Vmax worked out at 46.0 µmol/L/h. The “production of TPP-P by non-enzymatic hydrolysis in the blank sample, fold lower than that due to TPP1 activity in the DBS” value in series [2] (pH 4) is on record as “ca. 15 fold”.

Consider Ac-ALLPFGC [PPT1-P], for which the “decrease of PPT1-P compared to a control sample” value in series [4] is on record as 25-27%.

B1: recombinant PPT1 enzyme: recombinant palmitoyl protein thioesterase (protein, UniProt P50897 28-306, looked up)
Palmitoyl-protein …: DPPAPLPLVIWHGMGDSCCNPLSMGAIKKMVEKKIPGIYVLSLEIGKTLMEDVENSFFLNVNSQVTTVCQALAKDPKLQQGYNAMGFSQGGQFLRAVAQRCPSPPMINLISVGGQHQGVFGLPRCPGESSHICDFIRKTLNAGAYSKVVQERLVQAEYWHDPIKEDVYRNHSIFLADINQERGINESYKKNLMALKKFVMVKFLNDSIVDPVDSEWFGFYRSGQAKETIPLQETSLYTQDRLGLKEMDNAGQLVFLATEGDHLQLSEEWFYAHIIPFLG
As for B1, the activity in series [5] is on record as 40.4682 μmol/Lh.

Values taken from patent US10788499B2, “Methods for assaying palmitoyl protein thioesterase 1 and tripeptidyl peptidase activity in dried blood spots for detection of neuronal ceroid lipofuscinoses in newborns” (University of Washington, priority 2015, dated 2020).
